From patent publication US20100173362A1 (published 2010) come the findings set out here.

First the molecules themselves.
B1: Chimeric 2B8 / Hu2B8_Hv1-f.1 (antibody, V domains shown)
VH: EVQLVQSGAEVKKPGATVKISCKVSGYTFTTYWMHWVQQAPGKGLEWMGEINPTNGHTNYNEKFQGRVTITADTSTDTAYMELSSLRSEDTAVYYCATNYVGSIFDYWGQGTLVTVSS
VL: NIVMTQSPKSMSMSVGERVTLSCKASENVVSYVSWYQQKPAQSPKLLIYGASNRNTGVPDRFTGSGSATDFTLTISSVRAEDLADYHCGQSYNYPYTFGGGTRLEIKR
B2: chimeric 2B8 (antibody, V domains shown)
VH: QVQLQQPGAELVKPGTSVKLSCKASGYTFTTYWMHWVNQRPGQGLEWIGEINPTNGHTNYNEKFKSKATLTVDKSSSTAYMQLSSLTSEDSAVYYCARNYVGSIFDYWGQGTTLTVSS
VL: NIVMTQSPKSMSMSVGERVTLSCKASENVVSYVSWYQQKPAQSPKLLIYGASNRNTGVPDRFTGSGSATDFTLTISSVRAEDLADYHCGQSYNYPYTFGGGTRLEIKR
B3: Chimeric 2B8 / Hu2B8_Hv5-a.1 (antibody, V domains shown)
VH: EVQLVQSGAEVKKPGESLRISCKGSGYSFTTYWMHWVRQMPGKGLEWMGEINPTNGHTNYNPSFQGHVTISADKSISTAYLQWSSLKASDTAMYYCARNYVGSIFDYWGQGTLVTVSS
VL: NIVMTQSPKSMSMSVGERVTLSCKASENVVSYVSWYQQKPAQSPKLLIYGASNRNTGVPDRFTGSGSATDFTLTISSVRAEDLADYHCGQSYNYPYTFGGGTRLEIKR
B4: Hu2B8_Kv1-39.1 / Hu2B8_Hv1-f.1 (antibody, V domains shown)
VH: EVQLVQSGAEVKKPGATVKISCKVSGYTFTTYWMHWVQQAPGKGLEWMGEINPTNGHTNYNEKFQGRVTITADTSTDTAYMELSSLRSEDTAVYYCATNYVGSIFDYWGQGTLVTVSS
VL: DIQMTQSPSSLSASVGDRVTITCKASENVVSYVSWYQQKPGKAPKLLIYGASNRNTGVPSRFSGSGSGTDFTLTISSLQPEDFATYYCGQSYNYPYTFGQGTKLEIKR
B5: Hu2B8_Kv3-15.1 / Hu2B8_Hv1-f.1 (antibody, V domains shown)
VH: EVQLVQSGAEVKKPGATVKISCKVSGYTFTTYWMHWVQQAPGKGLEWMGEINPTNGHTNYNEKFQGRVTITADTSTDTAYMELSSLRSEDTAVYYCATNYVGSIFDYWGQGTLVTVSS
VL: EIVMTQSPATLSVSPGERATLSCKASENVVSYVSWYQQKPGQAPRLLIYGASNRNTGIPARFSGSGSGTEFTLTISSLQSEDFAVYYCGQSYNYPYTFGQGTKLEIKR
B6: Hu2B8_Kv1-39.1 / Chimeric 2B8 (antibody, V domains shown)
VH: QVQLQQPGAELVKPGTSVKLSCKASGYTFTTYWMHWVNQRPGQGLEWIGEINPTNGHTNYNEKFKSKATLTVDKSSSTAYMQLSSLTSEDSAVYYCARNYVGSIFDYWGQGTTLTVSS
VL: DIQMTQSPSSLSASVGDRVTITCKASENVVSYVSWYQQKPGKAPKLLIYGASNRNTGVPSRFSGSGSGTDFTLTISSLQPEDFATYYCGQSYNYPYTFGQGTKLEIKR
B7: Hu2B8_Kv3-15.1 / Chimeric 2B8 (antibody, V domains shown)
VH: QVQLQQPGAELVKPGTSVKLSCKASGYTFTTYWMHWVNQRPGQGLEWIGEINPTNGHTNYNEKFKSKATLTVDKSSSTAYMQLSSLTSEDSAVYYCARNYVGSIFDYWGQGTTLTVSS
VL: EIVMTQSPATLSVSPGERATLSCKASENVVSYVSWYQQKPGQAPRLLIYGASNRNTGIPARFSGSGSGTEFTLTISSLQSEDFAVYYCGQSYNYPYTFGQGTKLEIKR
B8: Hu2B8_Kv1-39.1 / Hu2B8_Hv5-a.1 (antibody, V domains shown)
VH: EVQLVQSGAEVKKPGESLRISCKGSGYSFTTYWMHWVRQMPGKGLEWMGEINPTNGHTNYNPSFQGHVTISADKSISTAYLQWSSLKASDTAMYYCARNYVGSIFDYWGQGTLVTVSS
VL: DIQMTQSPSSLSASVGDRVTITCKASENVVSYVSWYQQKPGKAPKLLIYGASNRNTGVPSRFSGSGSGTDFTLTISSLQPEDFATYYCGQSYNYPYTFGQGTKLEIKR
B9: Hu2B8_Kv3-15.1 / Hu2B8_Hv5-a.1 (antibody, V domains shown)
VH: EVQLVQSGAEVKKPGESLRISCKGSGYSFTTYWMHWVRQMPGKGLEWMGEINPTNGHTNYNPSFQGHVTISADKSISTAYLQWSSLKASDTAMYYCARNYVGSIFDYWGQGTLVTVSS
VL: EIVMTQSPATLSVSPGERATLSCKASENVVSYVSWYQQKPGQAPRLLIYGASNRNTGIPARFSGSGSGTEFTLTISSLQSEDFAVYYCGQSYNYPYTFGQGTKLEIKR

Usually Kd stands for the equilibrium constant for the complex coming apart.

Sequence of recombinant human HGF (R&D Systems, Catalog No. 294-HGN-025) (P14210 32-728): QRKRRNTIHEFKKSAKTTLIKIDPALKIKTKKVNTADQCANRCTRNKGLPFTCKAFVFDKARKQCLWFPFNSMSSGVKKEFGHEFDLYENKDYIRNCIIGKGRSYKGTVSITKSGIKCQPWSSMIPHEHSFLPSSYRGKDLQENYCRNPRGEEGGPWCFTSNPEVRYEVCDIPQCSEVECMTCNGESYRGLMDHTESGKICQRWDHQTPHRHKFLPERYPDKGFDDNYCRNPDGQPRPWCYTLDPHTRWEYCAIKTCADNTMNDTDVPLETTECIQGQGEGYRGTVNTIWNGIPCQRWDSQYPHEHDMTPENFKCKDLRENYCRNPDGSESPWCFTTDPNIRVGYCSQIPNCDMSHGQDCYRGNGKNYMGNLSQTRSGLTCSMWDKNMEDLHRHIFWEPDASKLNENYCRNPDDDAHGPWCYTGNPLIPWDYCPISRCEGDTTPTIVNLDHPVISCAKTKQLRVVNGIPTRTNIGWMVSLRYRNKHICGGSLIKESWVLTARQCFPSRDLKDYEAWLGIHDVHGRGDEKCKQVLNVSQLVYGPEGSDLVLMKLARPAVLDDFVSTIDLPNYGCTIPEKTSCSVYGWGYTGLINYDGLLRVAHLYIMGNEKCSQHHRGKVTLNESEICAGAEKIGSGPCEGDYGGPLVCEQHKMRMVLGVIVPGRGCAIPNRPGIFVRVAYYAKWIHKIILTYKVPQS

The experiment has as its target recombinant human HGF (R&D Systems, Catalog No. 294-HGN-025) (human, UniProt P14210 32-728). The experiment can be described thus: SPR.
For B1, the Kd was found to be 0.662 nM.

On to B2, for which the Kd came out at 0.0116 nM.

For B3, the dissociation constant Kd was found to be 0.0044 nM.

Regarding B4, the Kd stood at 0.294 nM.

For B5, the Kd turned out to be 0.466 nM.

Consider B6, for which the Kd amounted to 0.0136 nM.

Take B7: the Kd stood at 0.0055 nM.

Turning to B8, the Kd was 0.0147 nM.

Turning to B9, the Kd is 0.0269 nM.
